Assay [1] concerns the target human carboxypeptidase N (human) (UniProt P15169).
A further assay has as its target thrombin. Kind of assay: cell-based or functional assay.

Chain of human carboxypeptidase N (human) (P15169 21-458 limits assumed, chain 1 of 2): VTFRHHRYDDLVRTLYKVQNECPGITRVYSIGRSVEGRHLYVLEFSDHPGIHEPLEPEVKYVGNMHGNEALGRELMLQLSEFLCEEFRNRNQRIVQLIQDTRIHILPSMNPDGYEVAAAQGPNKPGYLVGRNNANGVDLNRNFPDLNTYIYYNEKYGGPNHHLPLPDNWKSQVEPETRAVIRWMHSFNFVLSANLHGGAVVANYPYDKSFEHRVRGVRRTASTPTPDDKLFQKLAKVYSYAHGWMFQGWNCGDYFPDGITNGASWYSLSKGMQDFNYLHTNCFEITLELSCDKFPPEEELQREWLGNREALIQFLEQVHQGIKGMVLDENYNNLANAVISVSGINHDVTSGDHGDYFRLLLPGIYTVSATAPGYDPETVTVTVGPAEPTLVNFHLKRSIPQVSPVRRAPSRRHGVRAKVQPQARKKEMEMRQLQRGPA
Chain of human carboxypeptidase N (human) (P22792 22-545 limits assumed, chain 2 of 2, further chain): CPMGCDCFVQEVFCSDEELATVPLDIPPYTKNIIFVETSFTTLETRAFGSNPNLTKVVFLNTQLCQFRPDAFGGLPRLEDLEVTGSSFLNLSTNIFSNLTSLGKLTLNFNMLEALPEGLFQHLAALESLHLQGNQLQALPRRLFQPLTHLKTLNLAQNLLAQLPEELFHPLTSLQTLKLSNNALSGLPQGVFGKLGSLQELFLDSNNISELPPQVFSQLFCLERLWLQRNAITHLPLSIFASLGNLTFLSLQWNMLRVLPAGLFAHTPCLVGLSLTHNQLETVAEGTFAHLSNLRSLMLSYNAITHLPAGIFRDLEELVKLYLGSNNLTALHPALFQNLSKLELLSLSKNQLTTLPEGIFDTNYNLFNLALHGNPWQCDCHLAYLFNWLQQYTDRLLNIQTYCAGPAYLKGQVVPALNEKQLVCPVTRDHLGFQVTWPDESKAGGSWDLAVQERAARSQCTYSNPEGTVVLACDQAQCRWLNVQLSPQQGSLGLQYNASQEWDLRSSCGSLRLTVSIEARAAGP

What is called Ki is the dissociation constant of the complex between target and ligand, obtained from inhibition or displacement. Higher therefore signals lower affinity. In the case of “protamine sulfate (grade X from salmon, Mr 5,000) (peptide)”, the inhibition constant Ki in assay [1] was found to be 970 nM.

rabbit lung thrombomodulin came in with an increase of TAFIa generation in diluted human plasma in the assay with thrombin of 30 to 35 fold.

For the origin of these results see patent publication US7176008.
